The text below walks through data of paper PMC4470385.

For this assay, the target named is Von Willebrand factor (VWF) (UniProt P04275). Put plainly: ELISA.
“FVIII 336(P4-P3')562/Ala108Ile variant (B-domainless) (natural protein)” registered a Kd of 0.91 nM. The same measure for “FVIII 336(P4-P3')562 variant (B-domainless) (natural protein)”: 0.82 nM. For the substance “FVIII Ala108Ile variant (B-domainless) (natural protein)”, the Kd was 0.97 nM. Consider “FVIII 336(P4-P3')562/Asp519Val/Glu665Val variant (B-domainless) (natural protein)”, for which the dissociation constant Kd came to 0.87 nM. Next, “FVIII 336(P4-P3')562/Ala108Ile/Asp519Val/Glu665Val variant (B-domainless) (natural protein)”: 1 nM; “WT FVIII (B-domainless factor VIII, lacking residues Gln744-Ser1637) (natural protein)”: 0.95 nM; “FVIII Asp519Val/Glu665Val variant (B-domainless) (natural protein)”: 0.9 nM.

What is called Kd is the free concentration of one partner at which half of the binding sites on the other are occupied at equilibrium, for simple one-to-one binding. A high value points to lower affinity.
